Assay results taken from patent US20220144895A1, “DE NOVO DESIGN OF TUNABLE PH-DRIVEN CONFORMATIONAL SWITCHES” (University of Washington, priority 2019, published 2022).
Positions count from the first letter of the chain named. Names may count otherwise. “Also recorded” adds a separate entry of the source.

Experiments:
U2-OS cells [1] = conditions: Bafilomycin A 1 μM, Chloroquine 50 μM as controls; cited from earlier work
[2] = Size-exclusion chromatography (SEC); type: physicochemical; conditions: high concentration
Description: Cells were lysed by microfluidization in the presence of 1 mM PMSF. Lysates were clarified by centrifugation at 24,000 ref at 4° C. for at least 30 minutes. Proteins were purified by Immobilized metal affinity chromatography (IMAC): supernatant was applied to Ni-NTA (Qiagen) columns pre-equilibrated in lysis buffer. The column was washed twice with 15 column volumes (CV) of wash buffer (25 mM Tris pH 8.0 at room temperature, 300 mM NaCl, 40 mM Imidazole), followed by 3-5 CV of high-salt wash buffer (25 mM Tris pH 8.0 at room temperature, 1 M NaCl, 40 mM Imidazole) then an additional 15 CV of wash buffer. Protein was eluted with 250 mM Imidazole, and buffer-exchanged into 25 mM Tris pH 8.0 and 150 mM NaCl without imidazole for cleavage of the N-terminal hexahistidine tag by purified hexahistidine-tagged TEV protease (with the exception of design pRO-1, which was cleaved using restriction grade thrombin (EMD Millipore 69671-3) at room temperature for 4 hours or overnight, using a 1:3000 dilution of enzyme into sample solution). A second Ni-NTA step was used to remove hexahistidine tag, uncleaved sample and the hexahistidine-tagged TEV protease, and the cleaved proteins were then […], 150 mM NaCl, and 2% glycerol.

[3] = Native mass spectrometry of pH-induced changes in oligomeric state; type: physicochemical; conditions: native MS
Description: Samples were buffer exchanged twice into 200 mM ammonium acetate (NH4Ac; MilliporeSigma) using Micro Bio-Spin P-6 columns (Bio-Rad). Protein concentrations were determined by UV absorbance using a Nanodrop 2000c spectrophotometer (Thermo Fisher Scientific) and diluted to make up a 10-fold stock solution (50 μM and 16.7 μM monomer and trimer concentration, respectively). 1 μL of this solution was mixed with 9 μL 200 mM NH4Ac/50 mM triethylammonium acetate (TEAA; MilliporeSigma), adjusted with acetic acid (Fisher Scientific) to obtain the desired final pH and incubated on ice for 30 min. […] 5 μL samples were filled into an in-house pulled glass capillary and ionized by nESI at a monomer or a trimer concentration of 5 μM or 1.67 μM respectively. All pH titration data were acquired on an in-house modified SYNAPT® G2 HDMS (Waters Corporation) with a surface-induced dissociation (SID) device incorporated between a truncated trap traveling wave ion guide and the ion mobility cell (39). The following instrument parameters were used spray voltage 0.9-1.3 kV; sampling cone, 20 V; extraction cone, 2 V; source temperature, room temperature; trap gas flow, 4 mL/min; trap bins, 45V. The data were processed with MassLynx™ v4.1 and DriftScope™ v2.1. For relative quantification, charge state series were extracted from DriftScope™, and smoothed spectra (mean; window 20; number of smooths 20) were integrated.
Python scripts were written to generate theoretical models according Equation 1, and curve-fitting to native mass spectrometry data (FIGS. 1, 3, 5) according to Equation 2 by nonlinear least squares using curve fit from scipy.optimize. The free energy estimates for individual n, m, and l layers used in Equation 1 modeling were estimated by solving linear equations as follows: values for the free energy of folding for designs pRO-2 and variants were estimated from GdmCl denaturation experiments (FIG. 11); each of these designs have different numbers of n, m, and l layers, thus series of linear equations relating the number of each layer type to the total free energies of folding were solved to estimate dG values of the individual layers of each type.

[4] = biological target: T1, pRO-4 Chain B (heterodimer pRO-4), hexahistidine tag cleaved; test: SEC and native mass spectrometry; heterodimer
T1 construct: The tag was removed for all pH experiments
T1 chain: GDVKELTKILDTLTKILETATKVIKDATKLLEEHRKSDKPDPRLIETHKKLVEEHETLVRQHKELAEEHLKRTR

[5] = Cryo-electron microscopy and tomography of proteins with DOPC liposomes; conditions: gold-nanoparticle conjugates, pH 5 and pH 8
Description: The conjugation reactions were performed immediately prior to use for electron microscopy imaging. […] The grids were prepared using a Vitrobot Mark IV (FEI) at 4 C and 100% humidity before being plunge-frozen in ethane cooled with liquid nitrogen.
Electron micrographs were collected using a Tecnai G2 Spirit™ Transmission Electron Microscope (FEI) operated at 120 kV and equipped with a 4k×4k Gatan Ultrascan CCD camera at a nominal magnification of 26,000× or a Tecnai TF-20 Transmission Electron Microscope (FEI) operated at 200 kV equipped with a K2 Summit Direct Electron Detector (Gatan).
Projection micrographs collected on the TF-20 were captured with the detector operating in counting mode. Specimens were imaged at 14,500 magnification, giving a pixel size of 0.254 nm, with a dose of ˜18e−/Å^2 across 75 200 ms movie frames. Data were collected in a semi-automated fashion using Leginon™ (49) and micrograph movie frames were aligned using MotionCor2™ (50). Leginon™ was used to collect tomography tilt series from −48 to +48 degrees bidirectionally in 3 degree increments with a total accumulated dose of ˜100 e−/Å^2. Reconstructions were processed using etomo in the IMOD™ software suite (31) with CTF parameters estimated from CTFFIND4™ (52). Reconstructed tomograms were visualized and measurements were made using ImageJ™ (53).

[6] = biological target: the molecule itself; test: native mass spectrometry at 5 uM trimer
Description: Samples were buffer exchanged twice into 200 mM ammonium acetate (NH₄Ac; MilliporeSigma) using Micro Bio-Spin P-6 columns (Bio-Rad). […]

[7] = pH 7.4
Description: For low-pH experiments involving circular dichroism (CD), small-angle X-ray scattering (SAXS), and size exclusion chromatography (SEC), Na2PO4-Citrate buffer was used to ensure that a single buffer system could be used that was stable over the entire pH range to be tested. Buffers were made using established ratios of stock solutions of 0.2 M Na2PO4 and 0.1 M Citrate; final pH was adjusted using hydrochloric acid (HCl) or sodium hydroxide (NaOH) if needed.
CD wavelength scans (260 to 195 nm) and temperature melts (25 to 95° C.) were measured using a JASCO™ J-1500 or an AVIV™ model 420 CD spectrometer. Temperature melts monitored absorption signal at 222 nm and were carried out at a heating rate of 4° C./min; protein samples were at 0.25 mg/mL in either phosphate buffered saline (PBS) pH 7.4 or Na2PO4-Citrate at indicated pH values (see Buffers systems for varying pH). Guanidinium chloride (GdmCl) titrations were all performed on an AVIV 420 spectrometer with an automated titration apparatus using either PBS pH 7.4 or Na2PO4-Citrate buffers at indicated pH at room temperature, monitoring helical signal at 222 nm, using a protein concentration of 0.025 mg/mL in a 1 cm cuvette with stir bar. Each titration consisted of at least 30 evenly distributed concentration points with one minute mixing time for each step. Titrant solution consisted of the same concentration of protein in the same buffer system plus GdmCl; GdmCl concentration of starting solutions was determined by reactive index.

[8] = Fluorescence dequenching liposome leakage (liposome disruption) assay; type: biochemical; conditions: pH 5, 2.5 μM protein
Description: Liposomes composed of DOPC (1,2-dioleoyl-sn-glycero-3-phosphocholine), DOPC with 25% cholesterol (molar ratio to DOPC), 3:1 DOPC:POPS (1-palmitoyl-2-oleoyl-sn-glycero-3-phospho-L-serine), and 3:1 DOPC:POPS with 25% cholesterol were prepared identically to a final concentration of 5 mM total lipid as previously described (32); lipids from Avanti Polar Lipids. Lipids solubilized in chloroform were dried under nitrogen gas and stored under vacuum for a minimum of 2 hours to remove residual solvent. The dried lipid film was the resuspended in Tris buffer (10 mM Tris, 150 mM NaCl, and 0.02% NaN3 pH 8.0) containing 25 mM Sulforhodamine B (SRB) fluorophore (Sigma) and subjected to 10 sequential freeze thaw cycles in liquid nitrogen. Liposomes were extruded 29 times through 100 nm pore size polycarbonate filters (Avanti Polar Lipids) and purified from free fluorophore using a PD-10 gel filtration column (GE Healthcare) into storage buffer (10 mM Tris, 150 mM NaCl, and 0.02% NaN3 pH 8.0). Liposome size and homogeneity was analyzed by dynamic light scattering (DLS) using a Dynapro Nanostar™ DLS (Wyatt Technologies). On average liposome diameter ranged from 120-130 nm with low polydispersity. Liposomes were stored at 4° C. and used within 5 days of preparation.
Liposome disruption and content leakage was analyzed by fluorescence spectroscopy as previously described (32). […] The solution was rapidly acidified to the target pH by addition of a fixed volume of acidification buffer and incubated for 20 minutes. […] SRB fluorescence is independent of pH within the ranges used here. Finally. Triton X-100 (Sigma) was added to a final concentration of 1% to fully disrupt liposomes. Liposome disruption as indicated by content leakage and SRB dequenching was normalized using the formula [Fω−F(0)]/[F(Max)−F(0)] where F(0) is the average fluorescence intensity before acidification and F(Max) is the average fluorescence intensity ater addition of Triton X-100. All measurements were collected on a Varian Cary Eclipse spectrophotometer using an excitation/emission pairing of […] and 2.5 nm slit widths at 24° C. Any data plotted together was collected using the sum batch of liposomes.

U2-OS cells [9] = test: Colocalization of +36GFP fusions with lysosomal membrane (confocal microscopy); type: cell-based; conditions: 5 μM, 1 hr
Description: U-2 OS (ATCC) cells were cultured in DMEM supplemented with 10% (v/v) inactivated FBS (Corning), 2 mM glutamine, penicillin (100 IU/mL), and streptomycin (100 μg/mL) at 37° C. and 5% CO2. The glass-bottom coverslip chambers were pre-coated with 500 μg/mL of Matrigel (Corning). Transfection of LAMP1-HaloTagTM was performed using Lonza Nucleofector system according to the manufacturer's specifications. After overnight of recovery and expression, the cells expressing LAMP1-HaloTagTM were labeled with 100 nM JF646-HTL for 30 minutes and washed three times with pre-warmed DMEM medium. The final concentration of 5 μM+36GFP fusion proteins was incubated with the LAMP1-HaloTagTM expressing U-2 OS cells on a pre-coated coverslip for 1 hr. Cells were fixed with 4% paraformaldehyde for 20 min at room temperature (RT) and quenched/rinsed with PBS supplemented with 30 mM glycine. Then, the coverslips were mounted on FluoroSaveTM (Millipore). For pH measurement of the lysosome, LysoSensorTM Yellow/Blue DND-160 was incubated at 1 mg/mL overnight and washed twice prior to imaging (54). The final concentration of 5 μM protein was incubated with the LAMP1-HaloTag expressing U2-OS cells that were loaded with 1 mg/mL LysoSensorTM Yellow/Blue DND-160 for 1 hr. In separate chambers, LysoSensorTM Yellow/Blue DND-160 loaded cells were incubated with bafilomycin A1 (1 μM) and chloroquine (50 μM) for 1 hr as a control. For fixed cell confocal microscopy, a customized Nikon TiE inverted scope outfitted with a Yokogawa spinning-disk scan head (#CSU-X1) along with an Andor iXonTM EM-CCD camera (DU-897) with […] exposure time was used to collect 3D images using an SR Apo TIRF 100×1.49 oil-immersion objective. […] coefficients were calculated in 3D with JF646 signal (LAMP-HaloTag) and +36GFP signal (corresponding proteins) using Imaris software with thresholding. Zeiss 880 equipped with AiryScanTM was also used to obtain high resolution images using a Plan-Apochromatic 63×/1.4 oil DIC objective.

[10] = biological target: the molecule itself; test: native mass spectrometry at the indicated pH
Description: Samples were buffer exchanged twice into 200 mM ammonium acetate (NH₄Ac; MilliporeSigma) using Micro Bio-Spin P-6 columns (Bio-Rad). Protein concentrations were determined by UV absorbance using a Nanodrop 2000c spectrophotometer (Thermo Fisher Scientific) and diluted to make up a 10-fold stock solution (50 μM and 16.7 μM monomer and trimer concentration, respectively). 1 μL of this solution was mixed with 9 μL 200 mM NH₄Ac/50 mM triethylammonium acetate (TEAA; MilliporeSigma), adjusted with acetic acid (Fisher Scientific) to obtain the desired final pH and incubated on ice for 30 min.

CO/C1=C\C(C)=C\[C@@H](C)[C@@H](O)[C@@H](C)C/C(C)=C/C=C/[C@H](OC)[C@@H]([C@@H](C)[C@@H](O)[C@H](C)[C@@]2(O)C[C@@H](O)[C@H](C)[C@@H](C(C)C)O2)OC1=O [Bafilomycin A]
effect on lysosomal pH (known drugs) (U2-OS cells [1]): known to neutralize lysosomal pH

CCN(CC)CCCC(C)Nc1ccnc2cc(Cl)ccc12 (stereo not shown) [Chloroquine]
effect on lysosomal pH (known drugs) (U2-OS cells [1]): known to neutralize lysosomal pH

B1: pRO-1: designed homotrimer, SEQ ID NO: 13-14 (protein)
chain 1: MGSSHHHHHHSSGLVPRGSHMGTLKEVLERLEEVLRRHREVAREHQRWAREHEQWVRDDPNSAKWIAESTRWILETTDAISRTADVLAEAIRVLAESD
chain 2: GSHMGTLKEVLERLEEVLRRHREVAREHQRWAREHEQWVRDDPNSAKWIAESTRWILETTDAISRTADVLAEAIRVLAESD
oligomeric state by SEC [2]: trimeric at high concentration | oligomeric state at pH 7 / neutral pH [3]: primarily dimeric

B2: pRO-4 Chain A (heterodimer pRO-4) (designed binder)
chain: MDEEDHLKKLKTHLEKLERHLKLLEDHAKKLEDILKERPEDSAVKESIDELRRSIELVRESIEIFRQSVEEEE
binding result [4]: binds

B3: pRO-2-noHis subunit (homotrimer lacking histidine networks) (designed binder)
chain: GSEYEIRKALEELKASTAELKRSTASLRASTEELKKNPSEDALVENNRLIVENNAIIVENNRIIAAVLELIVRAIK
notes: forms a homotrimer; Tag-free form
interaction with liposomes by cryo-EM [5]: no interactions with liposomes at either pH; also recorded: does not interact with liposomes at either pH | binding result [6]: binds | folding stability by GdmCl denaturation [7]: unaffected by change in pH | liposome disruption activity at pH 5 [8]: no detectable liposome activity | colocalization with lysosomal membranes (U2-OS cells [9]): not observed in lysosomes | oligomeric state at pH 7 / neutral pH [3]: assembled to the intended trimeric state | pH response of oligomeric state (pH-induced disassembly) ([3]; pH ~7 to ~3): remained trimeric at low pH; also recorded: no significant pH response

B4: pRO-2 I56V subunit (designed binder)
chain: B3 chain with S16A, S23A, S30I, N46H, L49A, N53H, I57V, N60H
notes: forms a homotrimer; Tag-free form, and the entry already carries I56V
binding result [10]: binds
